Source: patent US20250011440A1

What was measured:
[1] = target: human FcRn-His-GST (FcRn fused to a His-tag and glutathione S transferase) (human) (UniProt P55899); assay: AlphaScreen competition vs wild-type Fc, pH 6.0 (FIG. 13)
[2] = target: human FcRn-His-GST (FcRn fused to a His-tag and glutathione S transferase) (human) (UniProt P55899); assay: AlphaScreen competition, pH 6.0 (FIG. 13)

| fold increase in FcRn affinity (vs wild type) [1] | percent of the binding affinity of the wild type [2] | Substance |
| --- | --- | --- |
| 2 fold | – | IgG1 Fc variant N286# (deletion of N286; taken as in the anti-HER2 antibody trastuzumab) |
| – | 1.1% | IgG1 Fc variant ^254N (Asn inserted after position 254; taken as in the anti-HER2 antibody trastuzumab) |
